Where a chain is given by its changes, count along the chain named. Read-outs that look alike come from different tables or passages of the source. Positions of bridges follow the written chain, without caps; N, C: chain ends. No end group written: not given here.
B1: TFPI mut4 (SEQ ID NO: 5) (designed binder)
chain: MHSFCAFKAETGPCRAAHPRWWFNIFTRQCEEFIYGGCEGNQNRFESLEECKKMCTRD
B2: TFPI mut2 (SEQ ID NO: 7) (designed binder)
chain: B1 chain with E10D, T11D, H18M, P19K, W21F, W22F
B3: TFPI mut6 (SEQ ID NO: 9) (designed binder)
chain: B1 chain with E10D, T11D, R15K, A17I, H18M, P19K, W21F
B4: TFPI mut3 (SEQ ID NO: 4) (designed binder)
chain: B1 chain with W22F
B5: TFPI mut5 (SEQ ID NO: 8) (designed binder)
chain: B1 chain with E10D, T11D
B6: TFPI random (SEQ ID NO: 10) (designed binder)
chain: B1 chain with H18M, P19K, W21F, W22F
B7: TFPI mut13EA (SEQ ID NO: 18) (designed binder)
chain: EAMHSFCAFKAVTGPCKARIIRFFFNIFTRQCEEFIYGGCEGNQNRFESLEECKKMCTRD
B8: TFPI mut7EA (SEQ ID NO: 25) (designed binder)
chain: B7 chain with V12Y
B9: TFPI mut3EA (SEQ ID NO: 19) (designed binder)
chain: B7 chain with V12E, K17R, R19A, I20H, I21P, F23W
modifications: ends and bridges not checked; cysteine pairing not given here
B10: TFPI mut4EA (SEQ ID NO: 20) (designed binder)
chain: B7 chain with V12E, K17R, R19A, I20H, I21P, F23W, F24W
B11: TFPI mut12EA (SEQ ID NO: 30) (designed binder)
chain: B7 chain with V12S
B12: TFPI mut10EA (SEQ ID NO: 28) (designed binder)
chain: B7 chain with V12Y, K17R, R19A
B13: TFPI mut8EA (SEQ ID NO: 26) (designed binder)
chain: B7 chain with V12Y, R19A
B14: TFPI mut11EA (SEQ ID NO: 29) (designed binder)
chain: B7 chain with K17R, R19S, I20F, I21P, F23W
B15: TFPI mut15EA (SEQ ID NO: 31) (designed binder)
chain: B7 chain with K17R, R19A, I20M, I21K, F24W
B16: human tissue factor pathway inhibitor 1 Kunitz domain 1 (hTFPI D1) (other)
chain: MHSFCAFKADDGPCKAIMKRFFFNIFTRQCEEFIYGGCEGNQNRFESLEECKKMCTRD

What was measured:
[1] = biological target: T1, human plasmin (Homo sapiens, UniProt P00747); assay: Inhibition of plasmin, fluorogenic substrate assay; type: biochemical
T1 construct: enzymatic activities of trypsin, plasmin and plasma kallikrein; purchased Enzyme Research Hplas
T1 sequence (P00747 581-810 limits assumed): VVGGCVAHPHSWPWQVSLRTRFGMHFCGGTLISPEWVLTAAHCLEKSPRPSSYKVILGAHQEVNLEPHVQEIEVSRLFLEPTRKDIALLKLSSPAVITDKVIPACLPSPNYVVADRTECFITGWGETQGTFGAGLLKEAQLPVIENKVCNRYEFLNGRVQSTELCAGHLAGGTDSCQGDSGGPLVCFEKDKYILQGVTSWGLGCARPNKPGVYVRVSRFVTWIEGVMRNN
T1 sequence (P00747 97-580 partner limits assumed): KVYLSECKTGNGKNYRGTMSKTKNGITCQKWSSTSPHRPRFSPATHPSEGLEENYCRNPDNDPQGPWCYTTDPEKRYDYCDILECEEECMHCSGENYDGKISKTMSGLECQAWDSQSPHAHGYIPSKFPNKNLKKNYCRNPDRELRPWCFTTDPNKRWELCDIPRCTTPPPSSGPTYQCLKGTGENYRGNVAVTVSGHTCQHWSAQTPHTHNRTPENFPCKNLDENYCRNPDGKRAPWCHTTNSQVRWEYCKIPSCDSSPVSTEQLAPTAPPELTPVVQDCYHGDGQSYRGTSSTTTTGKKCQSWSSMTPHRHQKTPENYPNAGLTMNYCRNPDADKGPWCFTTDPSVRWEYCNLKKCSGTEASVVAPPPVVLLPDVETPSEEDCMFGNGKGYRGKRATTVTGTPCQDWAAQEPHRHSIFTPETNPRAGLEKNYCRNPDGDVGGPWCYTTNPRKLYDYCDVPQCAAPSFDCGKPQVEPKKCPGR
Procedure: (§1) The inhibitory potency of TFPI mut3 on the enzymatic activities of trypsin, plasmin and plasma kallikrein were determined with the aid of fluorogenic substrates in biochemical assays in white 384-well microtitre plates. The assay buffer was composed of 50 mM Tris/Cl, pH 7.4, 100 mM NaCl, 5 mM CaCl2, 0.08% (w/v) BSA. The assay conditions were specifically as follows:
(§2) 10 μl of a serial dilution of TFPI mut3EA were introduced into each well and preincubated with 20 μl of enzyme at RT for 5 min. The reaction was then started by adding 20 μl of substrate to each. The measurement took place after 60-90 min in a Tecan reader with an excitation wavelength of 360 nm and an emission wavelength of 465 nm. Dose-activity plots and half-maximum inhibitory constants (IC50 values) were determined using GraphPad Prism software (version 4.02).

[2] = biological target: T2, human plasma kallikrein (Homo sapiens, UniProt P03952); assay: Inhibition of plasma kallikrein, fluorogenic substrate assay; type: biochemical
T2 construct: purchased Calbiochem 420307
T2 sequence (P03952 391-638 limits assumed): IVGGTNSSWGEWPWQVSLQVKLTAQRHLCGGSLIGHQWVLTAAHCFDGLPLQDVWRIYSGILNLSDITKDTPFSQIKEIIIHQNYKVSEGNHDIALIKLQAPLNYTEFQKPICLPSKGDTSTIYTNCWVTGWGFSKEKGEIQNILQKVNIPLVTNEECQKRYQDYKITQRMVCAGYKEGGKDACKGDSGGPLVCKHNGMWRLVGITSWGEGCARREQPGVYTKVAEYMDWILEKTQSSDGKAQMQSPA
T2 sequence (P03952 20-390 partner limits assumed): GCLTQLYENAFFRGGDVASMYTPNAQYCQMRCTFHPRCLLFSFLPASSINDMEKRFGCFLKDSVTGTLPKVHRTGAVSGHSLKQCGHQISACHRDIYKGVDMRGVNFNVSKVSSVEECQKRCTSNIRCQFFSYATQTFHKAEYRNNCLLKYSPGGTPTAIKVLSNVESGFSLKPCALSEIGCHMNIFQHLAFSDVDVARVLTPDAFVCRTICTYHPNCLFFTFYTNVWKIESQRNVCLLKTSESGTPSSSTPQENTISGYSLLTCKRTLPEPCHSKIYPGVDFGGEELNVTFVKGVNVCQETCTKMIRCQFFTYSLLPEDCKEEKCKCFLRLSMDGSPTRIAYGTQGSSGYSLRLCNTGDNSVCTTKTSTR
Procedure: as §1, §2

[3] = biological target: T3, human trypsin (human, UniProt P07477)
[4] = biological target: T4, human plasmin (human, UniProt P00747)
Target sequence in this assay (P00747 97-810 limits assumed): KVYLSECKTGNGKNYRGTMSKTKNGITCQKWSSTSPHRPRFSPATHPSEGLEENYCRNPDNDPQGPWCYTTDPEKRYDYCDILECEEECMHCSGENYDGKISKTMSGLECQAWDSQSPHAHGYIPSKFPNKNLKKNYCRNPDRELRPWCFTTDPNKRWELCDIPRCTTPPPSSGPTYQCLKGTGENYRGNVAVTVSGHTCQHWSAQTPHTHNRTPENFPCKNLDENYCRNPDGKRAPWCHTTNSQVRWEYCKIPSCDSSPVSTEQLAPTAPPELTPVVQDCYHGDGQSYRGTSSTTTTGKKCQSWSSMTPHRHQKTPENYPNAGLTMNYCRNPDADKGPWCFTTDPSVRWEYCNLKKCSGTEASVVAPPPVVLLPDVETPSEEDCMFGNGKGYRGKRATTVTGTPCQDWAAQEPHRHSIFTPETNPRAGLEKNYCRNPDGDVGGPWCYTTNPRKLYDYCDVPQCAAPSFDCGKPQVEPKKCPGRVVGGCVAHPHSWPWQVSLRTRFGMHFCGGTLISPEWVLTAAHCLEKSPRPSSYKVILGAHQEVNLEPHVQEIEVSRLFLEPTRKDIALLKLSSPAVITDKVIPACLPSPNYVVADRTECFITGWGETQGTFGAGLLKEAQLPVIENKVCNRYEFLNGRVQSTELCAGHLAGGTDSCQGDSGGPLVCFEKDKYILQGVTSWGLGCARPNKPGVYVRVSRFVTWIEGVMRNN

[5] = biological target: T5, human plasma kallikrein (human, UniProt P03952)
[6] = biological target: T3, human trypsin; assay: cell-based or functional assay
[7] = biological target: T4, human plasmin; assay: cell-based or functional assay
[8] = biological target: T5, human plasma kallikrein; assay: cell-based or functional assay

Molecule | IC50 [1] [nM] | IC50 [2] [nM] | Trypsin IC50 [nM], inhibition of enzymatic activity, fluorogenic substrate [3] [nM] | Plasmin IC50 [nM], inhibition of enzymatic activity, fluorogenic substrate [4] [nM] | Plasma kallikrein IC50 [nM], inhibition of enzymatic activity, fluorogenic substrate [5] [nM] | also measured
EAMHSFCAFKAVTGPCRAAMKRFWFNIFTRQCEEFIYGGCEGNQNRFESLEECKKMCTRD (disulfide 7-57, 16-40, 32-53) [SEQ ID NO: 31] | 48 | 75 | – | – | – | –
EAMHSFCAFKAYTGPCRAAIIRFFFNIFTRQCEEFIYGGCEGNQNRFESLEECKKMCTRD (disulfide 7-57, 16-40, 32-53) [SEQ ID NO: 28] | 77 | 8 | – | – | – | –
EAMHSFCAFKAYTGPCKAAIIRFFFNIFTRQCEEFIYGGCEGNQNRFESLEECKKMCTRD (disulfide 7-57, 16-40, 32-53) [SEQ ID NO: 26] | 83 | 194 | – | – | – | –
MHSFCAFKAETGPCRAAMKRFFFNIFTRQCEEFIYGGCEGNQNRFESLEECKKMCTRD (disulfide 5-55, 14-38, 30-51) [SEQ ID NO: 10] | 27 | 48 | – | – | – | –
MHSFCAFKADDGPCRAAHPRWWFNIFTRQCEEFIYGGCEGNQNRFESLEECKKMCTRD (disulfide 5-55, 14-38, 30-51) [SEQ ID NO: 8] | 267 | 1 | – | – | – | –
MHSFCAFKADDGPCRAAMKRFFFNIFTRQCEEFIYGGCEGNQNRFESLEECKKMCTRD (disulfide 5-55, 14-38, 30-51) [SEQ ID NO: 7] | 195 | 11 | – | – | – | –
EAMHSFCAFKASTGPCKARIIRFFFNIFTRQCEEFIYGGCEGNQNRFESLEECKKMCTRD (disulfide 7-57, 16-40, 32-53) [SEQ ID NO: 30] | 56 | 2.34 | – | – | – | –
MHSFCAFKADDGPCKAIMKRFFFNIFTRQCEEFIYGGCEGNQNRFESLEECKKMCTRD (disulfide 5-55, 14-38, 30-51) [hTFPI D1, reference compound] | – | > 10 | – | – | – | –
MHSFCAFKADDGPCKAIMKRFWFNIFTRQCEEFIYGGCEGNQNRFESLEECKKMCTRD (disulfide 5-55, 14-38, 30-51) [SEQ ID NO: 9] | 497 | > 10 | – | – | – | –
MHSFCAFKAETGPCRAAHPRWFFNIFTRQCEEFIYGGCEGNQNRFESLEECKKMCTRD (disulfide 5-55, 14-38, 30-51) [SEQ ID NO: 4] | 32 | 3 | – | – | – | –
EAMHSFCAFKAVTGPCRASFPRWFFNIFTRQCEEFIYGGCEGNQNRFESLEECKKMCTRD (disulfide 7-57, 16-40, 32-53) [SEQ ID NO: 29] | 19 | 16 | – | – | – | –
EAMHSFCAFKAETGPCRAAHPRWWFNIFTRQCEEFIYGGCEGNQNRFESLEECKKMCTRD (disulfide 7-57, 16-40, 32-53) [SEQ ID NO: 20] | 24 | 2 | – | – | – | –
EAMHSFCAFKAYTGPCKARIIRFFFNIFTRQCEEFIYGGCEGNQNRFESLEECKKMCTRD (disulfide 7-57, 16-40, 32-53) [SEQ ID NO: 25] | 52 | 1.19 | – | – | – | –
EAMHSFCAFKAVTGPCKARIIRFFFNIFTRQCEEFIYGGCEGNQNRFESLEECKKMCTRD (disulfide 7-57, 16-40, 32-53) [SEQ ID NO: 18] | 47 | 1.48 | – | – | – | –
EAMHSFCAFKAETGPCRAAHPRWFFNIFTRQCEEFIYGGCEGNQNRFESLEECKKMCTRD (disulfide 7-57, 16-40, 32-53) [SEQ ID NO: 19] | 30 | 3 | – | – | – | –
B1 | – | – | 8 | 24 | 3 | –

Molecule | IC50 [1] [nM] | IC50 [2] [nM] | Trypsin IC50 [nM], inhibition of enzymatic activity, fluorogenic substrate [3] [nM] | Plasmin IC50 [nM], inhibition of enzymatic activity, fluorogenic substrate [4] [nM] | Plasma kallikrein IC50 [nM], inhibition of enzymatic activity, fluorogenic substrate [5] [nM] | also measured
B2 | – | – | 19 | 195 | 11 | –
B3 | – | – | 36 | 497 | > 10000 | –
B4 | – | – | 5 | 32 | 3 | –
B5 | – | – | 266 | 267 | 1 | –
B6 | – | – | 6 | 27 | 48 | –
B7 | – | – | 20 | 47 | 1480 | –
B8 | – | – | 38 | 52 | 1190 | –
B9 | – | – | 5 | 30 | 3 | –
B10 | – | – | 7 | 24 | 2 | –
B11 | – | – | 21 | 56 | 2340 | –
B12 | – | – | 17 | 77 | 8 | –
B13 | – | – | 64 | 83 | 194 | –
B14 | – | – | 4 | 19 | 16 | –
B15 | – | – | 1 | 48 | 75 | –
B16 | – | – | – | – | – | Trypsin IC50 [nM], inhibition of enzymatic activity, fluorogenic substrate [6]: 44 nM; Plasmin IC50 [nM], inhibition of enzymatic activity, fluorogenic substrate [7]: 559 nM; Plasma kallikrein IC50 [nM], inhibition of enzymatic activity, fluorogenic substrate [8]: > 10000 nM

Source: patent US20090170766A1, “Chimeric Kunitz Domains and their Use” (BAYER HEALTHCARE AG, priority 2006, published 2009)
